Experimental data: article PMC2192344
Read-outs that look alike come from different tables or passages of the source.

Assays:
His6-Elf-1 [1] = target: T1, His6-Elf-1 (human, UniProt P32519 1-619); test: EMSA
His6-Elf-1 [2] = target: T1, His6-Elf-1; test: EMSA; remark: listed apart in the source

T1 sequence (P32519 whole entry): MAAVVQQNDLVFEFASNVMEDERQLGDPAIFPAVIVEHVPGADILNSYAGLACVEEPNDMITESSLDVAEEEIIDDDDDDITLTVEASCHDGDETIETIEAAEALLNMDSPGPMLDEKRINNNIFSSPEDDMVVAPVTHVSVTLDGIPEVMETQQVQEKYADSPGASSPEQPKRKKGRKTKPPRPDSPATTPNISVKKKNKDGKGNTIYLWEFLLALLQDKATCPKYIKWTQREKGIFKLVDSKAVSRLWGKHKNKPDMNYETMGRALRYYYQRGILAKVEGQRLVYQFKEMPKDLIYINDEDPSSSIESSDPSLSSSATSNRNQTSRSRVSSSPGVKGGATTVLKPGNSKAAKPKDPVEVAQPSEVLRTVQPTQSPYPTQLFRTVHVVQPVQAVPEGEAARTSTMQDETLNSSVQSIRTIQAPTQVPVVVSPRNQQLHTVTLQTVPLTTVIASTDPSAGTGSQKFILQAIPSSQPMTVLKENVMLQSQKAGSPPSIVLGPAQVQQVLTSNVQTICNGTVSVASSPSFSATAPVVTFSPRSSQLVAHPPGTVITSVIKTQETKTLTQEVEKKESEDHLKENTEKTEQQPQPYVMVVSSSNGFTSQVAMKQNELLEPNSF

Binder	binding result (His6-Elf-1 [1])	binding result (His6-Elf-1 [2])
m3 -97/-84 (dsDNA) DNA 1: AAATATCGGAAGTG DNA 2: CACTTCCGATATTT	no binding	–
m2 -97/-84 (dsDNA) DNA 1: AAATACCGGAAGTG DNA 2: CACTTCCGGTATTT	–	binds
